Results reported in PMC5493969.

Target: MBP + FGFR2 31-406 (ECD + TM) (human) (UniProt P21802)
Assay: SEC; main elution fraction (1.5 M NaCl, 0.1% DDM) of a heparin affinity column loaded first with FGF1 and then with refolded MBP-FGFR2 ECD + TM, run on size exclusion chromatography; peaks analysed by SDS-PAGE and western blot (anti-MBP, anti-His-tag)

stoichiometry N: 2
Substance: MBP + FGFR2 31-406 (ECD + TM) (from UniProt P21802 31-406) (domain or fragment)
